{"source": "patent US12357965B2", "about": "“Supramolecular filamentous assemblies for protein purification” (The Johns Hopkins University, priority 2017, dated 2025)", "key": {"[1]": {"test": "Circular dichroism (CD) spectroscopy of peptide secondary structure", "assay_type": "physicochemical", "conditions": "100 μM in water at pH 7.4"}, "[2]": {"test": "Critical micelle concentration (CMC) measurement with Nile Red", "assay_type": "physicochemical", "conditions": "deionized water", "method": "CMC Measurement. […] The stock solution of Nile Red was initially prepared by dissolving the dye in acetone at 50 μM. 10 μL stock solution was loaded into several centrifuge tubes, where the solvent evaporates under room temperature to yield the dry mass of Nile Red. Various concentrations of the peptide solutions were prepared in deionized water, and then identical volume was added into the centrifuge tubes containing dry Nile Red and aged overnight. Fluorescent spectra of Nile Red were then monitored by a Fluorolog fluorometer (Jobin Yvon, Edison, NJ) with fixed excitation wavelength at 560 nm; emission spectra were monitored 580-720 nm. The CMC of IAs is determined by a blue-shift of the emission maximum, whereas this transition occurs as the incubated peptides exceed their CMC values.\nTo deeply understand the differences between single-chain and double-chain alkylated IAs with fragmented antibody binding peptides, further studies on CMC and secondary structures were conducted. The critical micelle concentration (CMC) values for various IAs were measured using Nile Red, a lipophilic dye that fluoresces depending on solvent polarity. Intensive fluorescence upon exposure to hydrophobic environments can be strongly quenched and red-shifted in aqueous media. When incubated with IAs at different concentrations in aqueous solution, Nile Red prefers to partition into the hydrophobic core offered by the self-assembled nanostructures and the CMC of IAs was determined when a blue-shift of the emission maximum occurred. […] Similarly, CMC values for C16-Helix2, Helix1-2C8, and 2C8-Helix2 can be obtained from FIG. 8B-8D."}, "[3]": {"test": "TEM imaging of self-assembled nanostructures (diameter)", "assay_type": "physicochemical", "conditions": "water; for diameter of nanofibers / nanobelts (TEM): pH 7.4, aged overnight; for diameter of smallest filaments (TEM): pH 7.4, double-chain alkylated IAs", "method": "Self-Assembly of Immuno-Amphiphiles and TEM Imaging Immuno-amphiphiles with 1 mM concentration were pretreated with HFIP and then dissolved in 1×PBS or deionized water and aged overnight at room temperature; 10 μL of 10 fold diluted sample was spotted on a carbon film copper grid with 400 square mesh (from EMS: Electron Microscopy Sciences) and the excess was removed with filter paper to leave a thin film of sample on the grid. After letting the sample dry for 5 minutes, 10 μL of 2% uranyl acetate was added to sample grid, and the excess was removed after 30 seconds. All samples were dried for at least 3 hours before TEM imaging."}, "[4]": {"test": "Thioflavin T (ThT) spectroscopic assay for β-sheet", "assay_type": "physicochemical", "conditions": "100 μM in deionized water", "method": "Thioflavin T (ThT) Spectroscopic Assay. A ThT stock solution was prepared in deionized water at 50 μM. […] The fluorescence intensity was then measured by a Fluorolog fluorometer (Jobin Yvon, Edison, NJ) with excitation at 440 nm (slit width 5 nm) and emission at 482 nm (slit width 10 nm).\nTo further confirm the component of secondary structures in the self-assembled IAs, a fluorescent dye Thioflavin-T (ThT) with large enhancement of its fluorescence emission upon binding to β-sheet surfaces was used to examine the existence of β-sheet secondary structures in Helix1-based IAs."}, "IgG": {"biological_target": "IgG (Homo sapiens, UniProt P01857)", "sequence (P01857 1-330 isoform P01857-1)": "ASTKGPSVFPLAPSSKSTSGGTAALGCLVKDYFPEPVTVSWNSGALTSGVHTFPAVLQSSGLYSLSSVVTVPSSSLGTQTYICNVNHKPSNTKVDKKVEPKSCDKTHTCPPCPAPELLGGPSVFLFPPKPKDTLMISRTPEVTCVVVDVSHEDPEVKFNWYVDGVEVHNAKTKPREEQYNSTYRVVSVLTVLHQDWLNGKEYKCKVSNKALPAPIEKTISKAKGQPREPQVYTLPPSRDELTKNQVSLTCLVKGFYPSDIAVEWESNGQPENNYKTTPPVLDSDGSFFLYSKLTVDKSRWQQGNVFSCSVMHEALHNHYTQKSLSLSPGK", "test": "IgG binding and precipitation by co-assembled immunofibers with 1 M ammonium sulfate (ProA column quantification)", "conditions": "mixed with IgG, 10:1 binding molecule to IgG", "method": "To investigate the IgG binding and precipitation ability with the new immunofibers binding system, 100 μl of desired immunofibers solution was incubated with IgG (with a 10:1 molar ratio of C12-VVKKGG(SEQ ID NO: 9) -Z33 and IgG) for half an hour followed by adding ammonium sulfate to a final concentration of 1 M to trigger the precipitation of the immunofibers and IgG. […] After centrifuging down the precipitates and analyzing the IgG concentration in the supernatant, about 30% IgG were precipitated out from the solution. IgG concentration was quantified with a ProA column (TSKgel® Protein A-5PW, 20 μm, 35×4.6 mm) monitored at 280 nm.\nTo increase the IgG binding efficiency and optimal precipitation condition in the co-assembled immunofibers binding system, several factors will continue to be optimized including the ratio of binding molecules to spacer molecules, the ratio of binding molecules to IgG, salt concentration, binding and salting time, and so on. The molar ratio of C12-VVEE (SEQ ID NO: 10) and C12-VVKKGG(SEQ ID NO: 9) -Z33 and the molar ratio of C12-VVKKGG(SEQ ID NO: 9) -Z33 were firstly studied and preliminary results were shown in FIG. 21. At a 10:2 molar ratio of C12VVKKGG(SEQ ID NO: 9) -Z33 to IgG and 1 M ammonium sulfate, 5 molar ratios of C12-VVEE (SEQ ID NO: 10) to C12-VVKKGG(SEQ ID NO: 9) -Z33 (5:1, 10:1, 25:1, 50:1, 100:1) were tested. […]"}}, "note": "Where “and” joins values, the source holds several entries; their conditions need not be identical. Identical values can stand only once. Where no end group is shown, it is not given here. The star is where a group is joined. Palmitoyl = CCCCCCCCCCCCCCCC(=O)*; Octanoyl = CCCCCCCC(=O)*; C12H21O = C12 acyl"}
{"substance": "C12H21O- PNLNEEQRNAKIKSIRDD (SEQ ID NO: 5) (C12H21O-PNLNEEQRNAKIKSIRDD) [C12-Helix2]", "values": [{"measurement": "Main Secondary Structure (100 μM)", "setting": "[1]", "value": "α-helix"}, {"measurement": "CMC", "setting": "[2]", "value": "2 to 5", "unit": "µM"}]}
{"substance": "PNLNEEQRNAKIKSIRDD [Helix2]", "values": [{"measurement": "Main Secondary Structure (100 μM)", "setting": "[1]", "value": "random coil"}]}
{"substance": "FNMQQQRRFYEALHDK (SEQ ID NO: 3)-C8H15O (not fully specified (residue 16); also: C-terminal C8 acyl (C8H15O), attachment not given here) [Helix1-C8]", "values": [{"measurement": "Main Secondary Structure (100 μM)", "setting": "[1]", "value": "Random coil"}, {"measurement": "CMC", "setting": "[2]", "value": ">100", "unit": "µM"}]}
{"substance": "C16H31O- PNLNEEQRNAKIKSIRDD (SEQ ID NO: 5) (Palmitoyl-PNLNEEQRNAKIKSIRDD) [C16-Helix2]", "values": [{"measurement": "Main Secondary Structure (100 μM)", "setting": "[1]", "value": "β-sheet"}, {"measurement": "CMC", "setting": "[2]", "value": "0.5 to 1", "unit": "µM"}, {"measurement": "diameter of nanofibers / nanobelts (TEM)", "setting": "[3]", "value": "12.4±1.7", "unit": "nm"}]}
{"substance": "FNMQQQRRFYEALHDK(SEQ ID NO: 3)-C16H31O (not fully specified (residue 16); also: C-terminal C16 acyl (C16H31O), attachment not given here) [Helix1-C16]", "values": [{"measurement": "ThT fluorescence emission at 482 nm compared with pure ThT solution", "setting": "[4]", "value": "dramatic increase of fluorescence"}, {"measurement": "Main Secondary Structure (100 μM)", "setting": "[1]", "value": "β-sheet"}, {"measurement": "CMC", "setting": "[2]", "value": "0.5 to 1", "unit": "µM"}, {"measurement": "diameter of nanofibers / nanobelts (TEM)", "setting": "[3]", "value": "9.6±1.3 nm and 9.5±1.2 nm"}]}
{"substance": "C8H15O- PNLNEEQRNAKIKSIRDD (SEQ ID NO: 5) (Octanoyl-PNLNEEQRNAKIKSIRDD) [C8-Helix2]", "values": [{"measurement": "Main Secondary Structure (100 μM)", "setting": "[1]", "value": "Random coil"}, {"measurement": "CMC", "setting": "[2]", "value": ">100", "unit": "µM"}]}
{"substance": "FNMQQQRRFYEALHDK(SEQ ID NO: 3)-C12H21O (FNMQQQRRFYEALHDK(C12H21O); not fully specified) [Helix1-C12]", "values": [{"measurement": "Main Secondary Structure (100 μM)", "setting": "[1]", "value": "β-sheet"}, {"measurement": "CMC", "setting": "[2]", "value": "5 to 10", "unit": "µM"}, {"measurement": "diameter of nanofibers / nanobelts (TEM)", "setting": "[3]", "value": "12.2±1.4 nm and 12.9±0.9 nm"}]}
{"substance": "FNMQQQRRFYEALHDKK(SEQ ID NO: 4)-(C8H15O)2 (not fully specified (residues 16, 17); also: two C-terminal octanoyl chains (C8H15O)2, places not given here) [Helix1-2C8]", "values": [{"measurement": "Main Secondary Structure (100 μM)", "setting": "[1]", "value": "α-helix"}, {"measurement": "CMC", "setting": "[2]", "value": "10 to 20", "unit": "µM"}, {"measurement": "diameter of nanofibers / nanobelts (TEM)", "setting": "[3]", "value": "10-70 nm"}, {"measurement": "diameter of smallest filaments (TEM)", "setting": "[3]", "value": "11.0±1.4", "unit": "nm"}]}
{"substance": "C12-VVKKGG (SEQ ID NO: 9) -Z33: binding molecule: C12 alkyl tail at N-terminus, VVKKGG spacer between the carbon chain and binding peptide Z33", "values": [{"measurement": "precipitation after addition of ammonium sulfate (observation)", "setting": "IgG", "value": "no precipitation was observed"}]}
{"substance": "FNMQQQRRFYEALHD [Helix1]", "values": [{"measurement": "Main Secondary Structure (100 μM)", "setting": "[1]", "value": "random coil"}]}
{"substance": "(C8H15O)2-KPNLNEEQRNAKIKSIRDD (SEQ ID NO: 7) (not fully specified (residue 1, N-terminus); printed as (C8H15O)2-KPNLNEEQRNAKIKSIRDD; also: two octanoyl chains (C8H15O)2 at N-terminal Lys, places not given here) [2C8-Helix2]", "values": [{"measurement": "Main Secondary Structure (100 μM)", "setting": "[1]", "value": "α-helix"}, {"measurement": "CMC", "setting": "[2]", "value": "5 to 10", "unit": "µM"}, {"measurement": "diameter of nanofibers / nanobelts (TEM)", "setting": "[3]", "value": "22.9±1.5", "unit": "nm"}, {"measurement": "diameter of smallest filaments (TEM)", "setting": "[3]", "value": "9.3±1.3", "unit": "nm"}]}
